32 molecules from patent US20210380703A1 can be followed below.

Changes are numbered by the printed parent chain.

First the molecules themselves.
B1: 368_A06 (antibody, V domains shown)
VH: EVQLLESGGGLVQPGGSLRLSCAASGFTFDSYSMHWVRQAPGKGLEWVAGINYNSGYKGYADSVKGRFTISRDNSKNTLYLQMNSLRAEDTAVYYCARAANWHDTHLDYWGQGTLVTVSS
VL: DIQMTQSPSSLSASVGDRVTITCRASQSILSYVNWYQQKPGKAPKLLIYAATSRHSGVPSRFSGSGSGTDFTLTISSLQPEDFATYYCQQSYNSPLTFGGGTKVEIK
B2: 374_F08 (antibody, V domains shown)
VH: B1 VH with H35N, A49S, S55G, G59S, A99G, H106A
VL: B1 VL with S31T, L47V, A51V, H55A, N93D, S94T
B3: 375_A07 (antibody, V domains shown)
VH: B1 VH with H35N, A49S, G50S, K58T, A99G
VL: B1 VL with S31T, V33L, H55A, N93D, S94T
B4: 374_B08 (antibody, V domains shown)
VH: B1 VH with H35N, S55G, K58T, G59S, A99G, H106A
VL: B1 VL with L30V, N93E, S94L
B5: 374_G03 (antibody, V domains shown)
VH: B1 VH with D30S, S31D, H35N, A49S, S55G, K58T, G59S, A99G, H106A
VL: B1 VL with L30S, V33L, L47V, H55A, Y92D, N93D, S94T
B6: 374_D07 (antibody, V domains shown)
VH: B1 VH with H35N, A49S, G59S, A99G, H106A
VL: B1 VL with L30V, V33L, L47V, R54L, H55A
B7: 374_C12 (antibody, V domains shown)
VH: B1 VH with D30S, H35N, S55G, G59S, A99G, H106A
VL: B1 VL with S31T, V33L, L47V, H55A, Y92D
B8: 374_E10 (antibody, V domains shown)
VH: B1 VH with D30S, H35N, A49S, S55G, G59S, A99G, H106A
VL: B1 VL with V33L, N93D
B9: 374_D06 (antibody, V domains shown)
VH: B1 VH with D30S, H35N, A49S, S55G, K58T, G59S, A99G, H106A
VL: B1 VL with L47V, H55A, N93D
B10: 375_A08 (antibody, V domains shown)
VH: B1 VH with D30S, H35N, S55G, K58T, A99G, H106A
VL: B1 VL with L30V, S31T, V33L, H55A, N93E
B11: 374_G10 (antibody, V domains shown)
VH: B1 VH with D30S, H35N, A49S, G50S, K58T, G59S, A99G
VL: B1 VL with L30V, V33L, L47V, A51V, H55A, N93D
B12: 374_D03 (antibody, V domains shown)
VH: B1 VH with H35N, S55G, G59S, A99G
VL: B1 VL with L30V, S31T, V33L, H55A, N93D, S94T
B13: 374_B10 (antibody, V domains shown)
VH: B1 VH with D30S, H35N, A49S, G50S, K58T, G59S, A99G
VL: B1 VL with S31T, L47V, R54L, H55A, N93D, S94T
B14: 374_G09 (antibody, V domains shown)
VH: B1 VH with D30S, H35N, S55G, A99G
VL: B1 VL with L30V, S31R, V33L, L47V, R54L, H55A, N93E, S94L
B15: 375_B12 (antibody, V domains shown)
VH: B1 VH with H35N, S55G, G59S, A99G, H106A
VL: B1 VL with L30V, S31T, V33L, H55A, N93D, S94T
B16: 374_F07 (antibody, V domains shown)
VH: B1 VH with H35N, G50S, S55G, K58T, A99G
VL: B1 VL with V33L, L47V, A51V, R54L, H55A, N93E
B17: 374_C01 (antibody, V domains shown)
VH: B1 VH with S33G, H35N, A49S, G59S, A99G, H106A
VL: B1 VL with S31T, V33L, H55A, N93E, S94T
B18: 374_G11 (antibody, V domains shown)
VH: B1 VH with D30S, S31D, H35N, A49S, S55G, K58T, G59S, A99G, H106A
VL: B1 VL with L30I, L47V, R54L, H55A, N93D
B19: 375_A12 (antibody, V domains shown)
VH: B1 VH with D30S, H35N, A49S, G59S, A99G, H106A
VL: B1 VL with V33L, L47V, A51V, H55A, N93E, S94T
B20: 368_A12 (antibody, V domains shown)
VH: B1 VH with A49S, G50S, H106A
VL: B1 VL with S31T, V33L, L47V, H55A, N93D
B21: 374_D10 (antibody, V domains shown)
VH: B1 VH with D30S, S33G, G50S, S55G, K58T, G59S, A99G
VL: B1 VL with S31T, H55A, N93D, S94N
B22: 374_G08 (antibody, V domains shown)
VH: B1 VH with H35N, A49S, S55G, K58T, G59S, A99G, H106A
VL: B1 VL with S31T, L47V, H55A, N93D
B23: 374_C09 (antibody, V domains shown)
VH: B1 VH with S33G, H35N, A49S, G50S, S55G, A99G
VL: B1 VL with L30V, V33L, L47V, H55A, N93E, S94L
B24: 374_B05 (antibody, V domains shown)
VH: B1 VH with H35N, A49S, K58T, G59S, A99G, H106A
VL: B1 VL with L30V, V33L, N93E
B25: 374_D05 (antibody, V domains shown)
VH: B1 VH with H35N, A49S, K58T, A99G
VL: B1 VL with S31T, V33L, H55A, N93D, S94T
B26: 374_B03 (antibody, V domains shown)
VH: B1 VH with H35N, A49S, S55G, K58T, G59S, A99G, H106A
VL: B1 VL with S31T, V33L, L47V, H55A, N93D
B27: 374_H01 (antibody, V domains shown)
VH: B1 VH with H35N, S55G, K58T, G59S, A99G
VL: B1 VL with V33L, L47V, R54L, H55A, N93E, S94N
B28: 374_E12 (antibody, V domains shown)
VH: B1 VH with D30S, H35N, A49S, S55G, G59S, A99G, H106A
VL: B1 VL with V33L, L47V, H55A, N93D, S94N
B29: 375_C04 (antibody, V domains shown)
VH: B1 VH with D30S, S31D, H35N, S55G, K58T, G59S, A99G, H106A
VL: B1 VL with S31T, V33L, L47V, H55A, N93E
B30: 374_H11 (antibody, V domains shown)
VH: B1 VH with D30S, H35N, A49S, S55G, K58T, G59S, A99G, H106A
VL: B1 VL with L30I, L47V, R54L, N93S, S94N
B31: 368_B08 (antibody, V domains shown)
VH: B1 VH with S33G, H35N, A49S, G50S, S55G, K58T, G59S
VL: B1 VL with S31T, L47V, H55A, N93E, S94N
B32: 368_B03 (antibody, V domains shown)
VH: B1 VH with S31D, S33G, H35N, A49S, S55G, K58T, G59S, H106A
VL: B1 VL with S31T, V33L, L47V, R54L, H55A, Q90H, N93E, S94N

This assay addresses human Fc (human). Kind of assay: ELISA, negative control.
Turning to B1, the optical density turned out to be 0.483 OD.
For the molecule B2, the optical density was determined as 0.211 OD.
With B3 the figure was 0.188 OD; with B4, 0.188 OD.
Under B5 stands 0.193 OD.
Under B6 stands 0.176 OD; under B7, 0.308 OD.
For B8, the optical density was found to be 0.165 OD.
Under B9 stands 0.172 OD; under B10, 0.205 OD.
Under B11 stands 0.173 OD.
With B12 the figure was 0.216 OD; with B13, 0.17 OD; with B14, 0.223 OD.
B15 gave an optical density of 0.223 OD.
In the case of B16, the optical density amounted to 0.176 OD.
With B17 the figure was 0.167 OD.
With B18 the figure was 0.179 OD; with B19, 0.174 OD; with B20, 0.425 OD.
With B21 the figure was 0.329 OD.
In turn, B22 returned an optical density of 0.206 OD.
Under B23 stands 0.154 OD.
Under B24 stands 0.168 OD; under B25, 0.171 OD; under B26, 0.166 OD.
Under B27 stands 0.251 OD; under B28, 0.177 OD; under B29, 0.221 OD.
B30 showed an optical density of 0.169 OD.
On to B31, for which the optical density was determined as 0.314 OD.
With B32 the figure was 0.297 OD.
